From patent US20200347130A1 (JIANGSU HENGRUI MEDICINE, published 2020) come the findings set out here.

The chains are these.
T1: CD96 extracellular region with His tag (CD96-His) (human, UniProt P40200 22-519)
T1 construct: also called CD96-ECD-His; Bio-CD96-His (biotin-labelled form)
T1 sequence: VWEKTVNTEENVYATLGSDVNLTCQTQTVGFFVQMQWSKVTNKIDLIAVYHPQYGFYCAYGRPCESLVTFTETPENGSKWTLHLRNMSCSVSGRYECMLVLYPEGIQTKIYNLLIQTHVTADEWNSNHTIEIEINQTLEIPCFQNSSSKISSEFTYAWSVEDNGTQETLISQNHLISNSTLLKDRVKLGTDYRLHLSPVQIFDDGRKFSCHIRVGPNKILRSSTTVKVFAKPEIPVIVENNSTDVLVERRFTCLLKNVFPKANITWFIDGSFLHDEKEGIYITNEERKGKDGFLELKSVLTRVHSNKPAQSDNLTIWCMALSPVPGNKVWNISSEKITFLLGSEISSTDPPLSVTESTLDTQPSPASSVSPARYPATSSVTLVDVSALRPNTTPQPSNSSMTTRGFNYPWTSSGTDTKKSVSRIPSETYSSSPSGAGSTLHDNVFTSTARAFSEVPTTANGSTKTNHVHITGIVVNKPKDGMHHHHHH

T2: Biotinylated CD96 antigen (human, UniProt P40200-2 22-503, limits assumed, biotinylated)
T2 sequence (looked up): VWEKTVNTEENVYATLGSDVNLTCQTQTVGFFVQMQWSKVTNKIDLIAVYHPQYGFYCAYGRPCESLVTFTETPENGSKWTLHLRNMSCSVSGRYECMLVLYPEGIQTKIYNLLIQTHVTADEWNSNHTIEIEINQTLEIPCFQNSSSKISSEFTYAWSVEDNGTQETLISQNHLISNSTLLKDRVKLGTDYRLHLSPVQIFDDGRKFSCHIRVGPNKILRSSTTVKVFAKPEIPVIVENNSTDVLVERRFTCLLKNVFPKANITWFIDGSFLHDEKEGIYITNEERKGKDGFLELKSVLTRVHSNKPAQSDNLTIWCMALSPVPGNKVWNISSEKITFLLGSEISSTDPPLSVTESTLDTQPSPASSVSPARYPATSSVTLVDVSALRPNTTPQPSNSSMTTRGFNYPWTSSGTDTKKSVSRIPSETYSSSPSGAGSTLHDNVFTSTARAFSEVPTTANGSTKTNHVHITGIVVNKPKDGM

B1: ch1719 (antibody, human IgG4 S228P, kappa, V domains shown)
VH: QVQLKESGPGLVAPSQSLSITCTVSGFSLISYGVSWVRQPPGKGLEWLGVIWGDGNTNYHSVLISRLSIRKDDSKSQVFLKLNSLQTDDTATYYCAKNNYYGSRYGYPMDYWGQGTSVTVSS
VL: DIVMTQSHKFMSTSVGDRVSITCKATQDVGTAVAWYQQKPGHSPKLLIYWASTRHTGVPERFTGSGSGTDFTLTIDNVQSEDLADYFCQQYGSSVLTFGAGTKVELRR
notes: also called chimeric antibody corresponding to m1719
B2: ch1721 (antibody, human IgG4 S228P, kappa, V domains shown)
VH: QVQLKESGPGLVAPSQSLSITCTVSGFSLISYGVNWVRQPPGKGLEWLGVIWGDGSTNYHSALISRLSISKDDSKSQVFLNLNSLQTDDTATYYCAKNYFYGSRYGYAMDSWGQGISVTVSS
VL: DIQMTQSPASLSAAVGETVTITCRASENIYSSLAWYQQKQGKSPQLLVYNAKTLIETVASRFSGSGSGTQYSLKINSLQPEDFGSFYCQHHYGTPYTFGGGTKLEIKR
notes: also called chimeric antibody corresponding to m1721
B3: ch1720 (antibody, human IgG4 S228P, kappa, V domains shown)
VH: EFQLQQSGPELVKPGASVKISCKASAYSLTDYNMNWVKQSNGKSLEWIGVINPSYGISSYNQKFKGKATLTVDQSSSTAYMHLNSLTSEDSAVYYCARQLRLPGYFDVWGTGTTVTVSS
VL: DIKMTQSPSSKNASLGERVTITCKASQDINSYLNWFQQKPGKSPKTLIYRASRLVDGVPSRFSGSGSGQDYSLTISSLEYEDMGIYYCLKYDEFPYTFGGGTKLEIKR
notes: also called chimeric antibody corresponding to m1720
B4: ch1718 (antibody, human IgG4 S228P, kappa, V domains shown)
VH: EFQLQQSGPELVKPGASVKISCKASAYSITDYNMNWVKQSNGKSLEWIGVINPSYGITDYNQNFKDKATLTVDQSSSTAYMQLNSLTSEDSAVYYCAIQLRLPGYFDVWGTGTTVIVSS
VL: DIKMTQSPSSMYASLGERVTITCKASQDINNYLNWFQQKPGKSPKTLIYRANRLVDGVPSRFSGSGSGQDYSLTISSLEYEDMGIYYCLKYDEFPYTFGGGTKVEIKR
notes: also called chimeric antibody corresponding to m1718
B5: ch1722 (antibody, human IgG4 S228P, kappa, V domains shown)
VH: QVQLQQPGAELVKPGTSVKLSCKASGNTFIDYWMHWVKQRPGQGLEWIGMLHPNSGTTSFNEKFKIKTTLTIDKSSSTAYMQLSSLTSEDSAIYYCASDYSGPFAYWGQGTLVTVSA
VL: QIVLTQSPGIMSAFPGEKVTMTCSASSSVNYIHWYQQKSGTSPKRWIFDTSKLASGVPARFSGSGSGTSYSLTISSMEAEDAATYYCQQWRSNPLTFGAGTKLELKR
notes: also called chi722; chimeric antibody corresponding to m1722
B6: h1719-010 (antibody, V domains shown)
VH: EVTLKESGPVLVKPTETLTLTCTVSGFSLSSYGVSWVRQPPGKGLEWLGVIWGDGNTNYHSVLISRLTISKDTSKSQVVLTLTNMDPVDTATYYCAKQNYYGSRYGYPIDYWGQGTTVTVSS
VL: DIQMTQSPSSVSASVGDRVTITCKATQDVGTAVAWYQQKPGKAPKLLIYWASTRHTGVPSRFSGSGSGTDFTLTISSLQPEDFATYYCQQYGSSVLTFGGGTKVEIK
notes: Only variable regions are tied to this name
B7: h1718-012 (antibody, V domains shown)
VH: EVQLVQSGAEVKKPGASVKVSCKASGYTITDYNMNWVRQAPGQRLEWIGVINPSYGITDYNQNFKDRVTITVDTSASTAYMELSSLRSEDTAVYYCAIQLRLPGYFDVWGQGTTVTVSS
VL: DIQMTQSPSSLSASVGDRVTITCKASQDINQYLNWFQQKPGKAPKTLIYRANRLVDGVPSRFSGSGSGQDYTLTISSLQPEDFATYYCLKYDEFPYTFGGGTKVEIK
notes: as for B6
B8: h1721-003 (antibody, V domains shown)
VH: EVTLKESGPVLVKPTETLTLTCTVSGFSLSSYGVNWIRQPPGKALEWLGVIWGDGSTNYHSALISRLTISKDTSKSQVVLTLTNMDPVDTATYYCAKNYFYGSRYGYAMDSWGQGTTVTVSS
VL: DIQMTQSPSSLSASVGDRVTITCRASENIYSSLAWYQQKPGKAPKLLIYNAKTLIEGVPSRFSGSGSGTDFTLTISSLQPEDFATYYCQHHYGTPYTFGGGTKVEIK
notes: Only variable regions are tied to this name; also called M721-003

The first assay deals with T1, CD96 extracellular region with His tag …. Nature of the assay: blocking cell ELISA: antibody premixed with CD96 antigen (0.5 ug/mL), binding to fixed CD155-CHO cells. The method, then: CD155-CHO cells (constructed by Shanghai Hengrui) were seeded in 96-well culture plates at a density of 9×10⁴/100 μL/well and cultured overnight. After aspirating the supernatant, the plate was washed once with PBS, 100 μl/well of immunostaining fixation solution (Biyuntian, Cat No. P0098) was added and fixed for one hour at room temperature, and the plate was washed three times with PBS. After discarding the liquid, 250 μl/well of 5% skim milk (BD, Cat No. 232100) blocking solution diluted with PBS was added, and the plate was blocked in an incubator at 37° C. for 2.5 hours. After blocking, the blocking solution was discarded, subsequently, the plate was washed 4 times with PBST buffer (pH 7.4 PBS containing 0.05% tween-20). 50 μl/well of antigen-antibody pre-incubation solution (gradient concentrations of the hybridoma antibody to be tested and CD96-Fc at a final concentration of 0.5 μg/mL were premixed at 37° C. for 30 minutes, or gradient concentrations of humanized antibody samples and Bio-CD96-His at a final concentration of 0.5 μg/mL were premixed at 37° C. for 30 minutes) (Biotin-labeled kit, Dongren Chemical, Cat No. LK03) was added, and the plate was incubated in an incubator at 37° C. for 2 hours. After incubation, the reaction solution in the microtiter plate was discarded, the plate was washed 4 times with PBST, and 50 μl/well of HRP-labeled goat anti-human secondary antibody (Jackson Immuno Research, Cat No. 109-035-003) diluted with sample dilution or HRP-labeled streptavidin diluted with sample dilution (Sigma, Cat No. 52438) was added, followed by incubating at 37° C. for 1 hour. After washing the plate 4 times with PBST, 50 μl/well of TMB chromogenic substrate (KPL, Cat No. 52-00-03) was added, the plate was incubated at room temperature for 10-20 minutes, followed by adding 50 μl/well of 1M H₂SO₄ to stop the reaction. The absorption value was read at 450 nm with a NOVOStar microplate reader, and the EC50 value of the effect of CD96 antibody on blocking the binding between the antigens and CD155-CHO cells was calculated (see FIG. 2 and Table 16).
For orientation: ELISA stands for enzyme-linked immunosorbent assay.
As usually defined, the IC50 is the concentration at which inhibition is half-maximal. Read a low IC50 as inhibition by little substance. With B1, the IC50 turned out to be 0.137 nM.
Still for that read-out and setting: next, B2: 0.214 nM; B3: 0.149 nM.
Same read-out and setting: next, B4: 0.096 nM.
The molecule B5 displayed a half-maximal inhibitory concentration (IC50) of 0.159 nM.

The target in another assay is T2, Biotinylated CD96 antigen. Nature of the assay: competition ELISA: antibody B pre-incubated with biotinylated CD96 antigen, added to a plate coated with antibody A, HRP-streptavidin, OD450; competitor: coated h1721-003. The method, then:
Competitive assays of different antibodies binding to CD96 protein were used to classify binding epitopes of the antibodies. The specific experimental methods are as follows:
Antibody A was diluted to a concentration of 2 μg/ml with PBS buffer (Shanghai Yuanpei Biotechnology Co., Ltd. Cat No. B320), pH 7.4, added to a 96-well microtiter plate (Corning, Cat No. CLS3590-100EA) at a volume of 50 μl/well, and coated at 4° C. overnight. After discarding the liquid, 250 μl/well of 5% skim milk (BD skim milk, Cat No. 232100) blocking solution diluted with PBS was added, and the plate was incubated at 37° C. for 3 hours. After blocking, the blocking solution was discarded, and the plate was washed 5 times with PBST buffer (pH 7.4 PBS containing 0.05% tween-20) and stored for later use. Antibody B was diluted to 40 μg/ml and 8 μg/ml with 1% BSA, and Biotinylated CD96 antigen was simultaneously diluted to 4 μg/mL. Subsequently, antibody B and antigen were mixed in a 1:1 volume ratio, pre-incubated at 37° C. for 45 minutes, added into the enzyme plate coated with antibody A, thus incubating the plate in an incubator at 37° C. for 1.5 hours. After incubation, the plate was washed for 5 times with PBST, and 50 μl/well of HRP-labeled streptavidin (Sigma, Cat No. 52438) diluted with sample dilution was added, followed by incubating the plate at 37° C. for 1 hour. After washing the plate 5 times with PBST, 50 μl/well of TMB chromogenic substrate (KPL, Cat No. 52-00-03) was added for color development, followed by adding 50 μl/well of 1M H₂SO₄ to stop the reaction. The absorption value was read at 450 nm with a NOVOStar microplate reader, and the OD value was used to determine whether A and B CD96 antibodies compete with each other. Antibodies that compete with each other fall into the same class of antibodies, otherwise belong to different classes of antibodies (see FIG. 3 and Table 18).
With B6, the “IC50 (read off the curve)” value is about 0.4 nM.
On to B7, for which the “IC50 (read off the curve)” value was about 0.4 nM.
The same measure, in the same setting: next, B8: about 0.4 nM.
